Laboratory results taken from the nanobody polyreactivity screen of Harvey et al. (2022).

Assay: yeast display, Sf9 membrane polyspecificity reagent, FACS + sequencing; frameworks hold sequencing errors
Procedure, shortened: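 Genes from sorted yeast were amplified by colony PCR, read by MiSeq 2 × 250 sequencing and filtered on CDR length. These cells carried a synthetic nanobody library in Saccharomyces cerevisiae BJ5465 and were sorted by FACS into low and high (top ~1%) gates on anti-HA and streptavidin fluorescence. Polyreactivity is labelled according to the gate of origin.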

Sequence | polyreactivity (PSR sort gate)
QVQLVESGGGLVQAGGSLRLSCAASGYIFGWNAMGWYRQAPGKERELVAAISSSGGNTYYADSVKGRFTISRDNAKNTVYLQMNSLKPEDTAVYYCARSYPYRYDYWGQGTQVTVSS | low polyreactivity
QVQLVESGGGLVQAGGSLRLSCAASGRPFYVYAMGWYRQAPGKERELVASIRRSGGITYYADSVKGRFTISRDNAKNTVYLQMNSLKPEDTAVYYCNARRGPGRREYDYWGQGTQVTVSS | high polyreactivity
QVQLVESGGGLVQAGGSLRLSCAASGRTFNGYALGGYRQAPGKERELVAAICSSGGSTYYADSVKGRFTISRDNAKNTVYLQMNSLKPEDTAVYYCAARRANGFNYWGQGTQVTVSS | high polyreactivity
QVQLVESGGGLVQAGGSHRLSFAASGSIFWRNAMGWYRQAPGKERELVAVISGGSTYADSVKGRFTISRDNAKNTVYLKMNSLKPEDTAVYFCNADLYVSSYPKGYDYWGQGTQVTVSS | low polyreactivity
QVQLVESGGGLVQAGGSLRLSCAASGITFGGNAMGWYRQDPGKERELVAAISSSGGSTYYADSVKGRFTISRDNAKNTVYLQMNSLKPEDTAVYYCAARNRYPLRFYYWGQGTQVTVSS | high polyreactivity
QVQLVESGGGLVQAGGSLRLSCAASGRTFGPYAMGWYRQPPGKEREFVAAISYSGGSTYYADSVKGRLTISRDNAKNTVDLQMNSLKPEVTAVYYCAVDIDANSGTRDYWGQGTQVTVSS | low polyreactivity
QVQLVESWGGLVQAGGSLRLSCAASGFIFSRYAMGWYRQAPGKERELVAAISSRGGSTYYADSVKGRFTISRDNAKNTVYLQMNSLKPEDTAVYYCAKSSPTPHYYWGQGTQVTVSS | high polyreactivity
QVQLVESGGGLVQAGGSLRLSCAASGFTFYAYAMGWYRQAPGKERELVAVITGGGSTYYADSVKGRFTISRDNAKNTVYLQMNSLKPEDTAVYYCAATYRGWLVGNGVWYWYYYWGQGTQVTVSS | high polyreactivity
QVQLVESGGGLVQAGRSLRLSCAASGRTFPYYAMGWYRQAHGKEREFVAAISRRGASTYYADSVKGRFTISRDNAKNTVNLQMNSLKPEDTAVYYCNAVYRCYYSGELDYWGQGTQVTVSS | high polyreactivity
QVQLVESGGGLVQAGGSLRISCAASGFIFQSNAMGWYRQAPGKERELVAAISWSGDNTYYADSVKGRFTISRDNAKNTVYLQMNSLKPEDTAVYYCAAVPYPSYYDTGYDYWGQGTQVTVSS | low polyreactivity
QVQLVESGGGLVQAGGSLRLSCAASGFIFDNNAMGWYRQAPGKERELVATITSGGRTNYADSVKVRFTISRDNAKNTVYLQMNSLKPEDTAVYYCAAGYYLGSRRKTRDYWGQGTQVTVSS | low polyreactivity
QFQLVESGGGLVQAGGSLRLSCAASGSIFSYYAMGWYRQAPGKERELVAGITWSGGRTYYADSVKGRFTISRDNAKNTVYLQMNSLKPEDTAVYYCAAAVKRALDYWGQGTQVTVSS | high polyreactivity
QVQLVESVGGLVQAGGSLRLSCAASGSTIDGYAMGCYIQAPGKEREFVAAISFSSASTYYADSVKGRFTISRDNAKNTVYLQMNSLKPEDTAVYYCNADFFDSGGSIEDDSWGQGTQVTVSS | low polyreactivity
QVQLVESGGGLVPAGGSLRLSCAASGSTFEVNAMGWYRQAPGKERELVADITSGGSTNYADSVKGRFTISRDNAKNTVFLQMNSLKPEDTAVYFCARDDWFGFIRVQEMDYWGQGTQVTVSS | low polyreactivity
QVQLVESGGGLVQSGGSLRLSCAASGSTSGTNAMGWYRQAPGKERELVAGISYRGGSTYYADSVKGRFTISRDNAKNTVYLHMNSLKPEDTEVYYCAASRNISYWGQGTQVTVSS | high polyreactivity
QVQLVESGGGLVQAGGSLRLSCAASGFIFTDNAMGWYRQAPGKDREFVAAITYSGGSTYYADSVKGRFTISRDNAKNTVYFQMNSLKPVDTAVYYCNKDVFPAPGGVTAYEYEYWGQGTQVTVSS | low polyreactivity
QVQLVESGGGLDQAGGSLRLSCAASGITFFNYAMGWYRQAPGKEREFVAGIDSSGGSTSYADSVKGRFTISRDNAKNTVYLQMNSLKPEDTAVYYCAADRTGSHFDYWGQGTQVTVSS | low polyreactivity
QVQLQDSVGCLVQAGGSLRLSCAASGSISIYGYMGWYRQAPGNERELVAAITAGGSTYYADSVKGRFTISRDNAKNTVYLLMKSLKPEDTAVYYCAPYEQRVYDLHYWGQGTQVTVSS | high polyreactivity
QVQLVESGGGLVQAGGSLRLSCAASGTIFGYYAMGWYRQAPGKERELVAAITSDGDTYYADSVKGRFTISRDNAKNTVYLQMNSLIPEDTAVYYCNATYGGPYYIQYDYWGQGTQVTVSS | low polyreactivity
QVQLVESGGGLVQAGGSLRLSCPASGSTFSYNMGWYRPAPGKERELVAAISGSGGSTYADSVKGRFTISRDNAKKTVYLQMNSLKPEDTAVYYCATVRYWVHEYGFWGLGTQVTVSS | high polyreactivity
QVQLVESGGGLVQAGGSLRLSCAASGRTFYRYAMGWYRQAPGKERELVAAISSNGGSTYYADSVKGRFTISRDNAKNTVYLQMNSLKPEDTAVYYCYYYYSRLFDYWGQGTQVTVSS | high polyreactivity
QVQLVESGGGLVQAGGSLRLSCAASGSIIVRYAMGWYRQAPGKERELVAAISWSGGRTYYADSVKGRFTISRDNAKNTVYLQMNSLKPEDTAVYYCAKRQGGRKYVRYEYDSWGQGTQVTVSS | low polyreactivity

Sequence | polyreactivity (PSR sort gate)
QVQLVESGGGLVQAGGSLRLICAASGITFYRNARGWYRQAPGKERELVAAITSGTSTYYADSVKGRFTISRDNAKFTVYLQMISLKPEDTAVYYCAKRTPPGYYGFDYWGQGTQVNVSS | low polyreactivity
QVQLVESGGGLVQAGGSLRLSCAASGFIFRYYDMGWYRQAPGKERELVAAISWSGCSTYYADSVKGRFTISRDNAKNTVYLQMNSLKPEYTAVYYCAAERYAMLFYAEDYWGQGTQVTVSS | low polyreactivity
QVQLVESGGGLVQAGGSLRLSCAASGGTFTYYAKGWYRQAPGKERELVAAISWSDTSTYYADSVKGRFTISRDNAKNTVYLQMNSLKPEDTAVYYCAAEFYVRYQADYEYWGQGTQVTVSS | high polyreactivity
QVQLVESGGGLVQAGGSLRLSCAASGRTFRYYAMGWYREAPGKERELVAAISSSGDRTYYADSVKGRFTISRDNAKNTVYVQMNSLKPEDTAVYYCAKDSYRRYWGQGTQVTVSS | high polyreactivity
QVQLVESGGGLVQAGGSLRLSCAASGSIFSSYAMGWYRPAPGNERELVAAISKSGGSTYYADSVKGRFTISRDNAKNTVYLQMNSLKPEDTAVYYCAARTRQLEYNSWGQGTQVTVSS | high polyreactivity
QGQLVESGGGLVQAGGSLRLSCAASGRTFTDYAMGWYRQAPGKEWELVADISGSGGSTYYADSVKGRFTISRDNAKNTVYLQMNSLNPEDTAVYYCNAVGSRRDKFDYWGQGTQVTVSS | low polyreactivity
QVQLVESGGGLVLAGGSLRLSCAASGRILGSYAMGWYRQAPGKERELVAGISWRGGRTSYADSVKGRFTISRDNAKNPVYLQMNSLKPEDTAVYYCATRSSSRKYGYWGQGTQVTVSS | high polyreactivity
QVQLVESGGGLVQAGGSLRLSCAASGRTFNTYAMGWYSQAPGKERELVAAISRRGGSTYYADSVKGRFTISRDNAKNTDYLQMNSLKPEDTAVYYCAAGNSVGLGWGQGTQVTVSS | high polyreactivity
QVQLVESGGGLVQAGGSLRLSCPASGFIFRYYAMGWYRQAPGKERELVAAISWSGGSTNYADSVKGRFTISRDNAQNTVYLQINSLKPEDTALSYCADDGTVRSWGRYYHWGQGTQVTVSS | low polyreactivity
QVQLVESGGGLVQAGGSLRLSCAASGLIFSRYAMGWYRQAPGKERELVAAISSSGGTTYYADSVKGRFTISRDNAKNTVYLQMNSLKPEDTAVYYCAAGVAWRFYSWGQGTQVTVSS | high polyreactivity
QVQLVESGGGLVQAGGSLRLSCAASGFTYKYYAMGWYRQAPGKERELVAAIRRSAGSTNYADSVKGRFTISRDNAKNTVYLQMNSLKPEDTAVYYCNTVGTRQPMDYWGQGTQVTVSS | high polyreactivity
QVQLVESGGGLVKAGGSLRLTCAASGSIFRYYAMGWYRQAPGKERELVAAISGSGGSTYYADSVKGRFTISRDNAKNTVYLQMNSLKPEDTAVYYCARVRGCYDKMYYWGQGTQVTVSS | high polyreactivity
QVQLVESGGGLVQAGGSLRLSCAASGFTFRRYAKGWYRQATGKEREFVAAISIRGGRTNYADSVKGRFTISRDNAKNTVYLQMNSLKPEDTAVYYCAADGVYALDVESDYWGQGTQVTVSS | high polyreactivity
QVQLVESGGGLVQAGGSLRLSCAASGGTFGTNTMGWYRPAHGKERELVAAISKRGGRTYYADSVKGRFTISRDNAKITVYLQMNSLKPEDTAVYYCAADTGGNPKYDYWGQGTQVTVSS | high polyreactivity
QVQLVESGGGLVQAGGSLRLSCAASGFTFPLNARGWYRQAPGKERELVAAITNGGTTYYADSVKGRFTISRDNAKNTVYLQMHSLKPEDTAVYYCAAYTYRYGSFKYGYWGQGTQVTVSS | low polyreactivity
QVQLVESGGGLVQAGGRLRLSCAASGGIFSAYAMGWYRQAPGTERELVAAISSGGSTKYADSVKGRVTISRDNAQNTVYLQMNSLKPEDTAVYYCAVLYIRWYTYEYWGQGAQVTVSS | high polyreactivity
QVQLVESGVGLVQAGGSLRLSCAASGFTFRYYAMGWYRQAPGKERELVAAIRSGGRTYYADSVKGRFTISRDNAKNTVYLQMNSLKPEDTAVYYCNAKYKYSRGYDYWGQGTQVTVSS | high polyreactivity
QVQLVESGGGLVQAGGSLRLSCAASGRTFPWYAMGWYRQAPGKERELVATISRSGASTYYADSVKGRFTISRDNAKNTVYLQMNSLKPEDTAVYYCAARLGYATLYSWGQGTQVTVSS | high polyreactivity
QVQLVESGGGLVQAGGSLRLSCAASGRIFAHNAMGWYRQAPGKERELVAAISSSDGSTYYADSVKGRFTISRDNAKNTVYLQMNSLKPEDTAVYYCAARGSPSKHHWYDYWGQGTQVTVSS | low polyreactivity
QVQLVESGGGLVQAGGSLRLSCAASGRTFYANAMGWYRQAPGKERELVAAITYRGGSTNYADSVKGRFTISRDNAKNTVYLQMNSLKPEDTAVYYCAKVYNPNYLWYLTYGYDYWGQGTQVTVSS | low polyreactivity
QVQLVESGGGLVQAGGSLRLSCAASGIIFWRYAMGWYRQAPGKERELVASISSSGGRTYYADSVKGRFTISRDNAKNTVYLQMNSLTPEDTAVYYCAARGPYGYDLLYYWGQGTQVTVSS | high polyreactivity
